T1: NRP(D/E)2 (Arabidopsis thaliana (endogenous in T87 …, UniProt Q9LK40 1-1172))
T1 construct: NRP(D/E)2, second largest subunit shared by Pol IV and Pol V, Arabidopsis thaliana; also called NRP(D/E)2 subunit; source: endogenous, A. thaliana T87 cells, co-purified with 3xFLAG-10xHis-NRPE1
T1 sequence (looked up): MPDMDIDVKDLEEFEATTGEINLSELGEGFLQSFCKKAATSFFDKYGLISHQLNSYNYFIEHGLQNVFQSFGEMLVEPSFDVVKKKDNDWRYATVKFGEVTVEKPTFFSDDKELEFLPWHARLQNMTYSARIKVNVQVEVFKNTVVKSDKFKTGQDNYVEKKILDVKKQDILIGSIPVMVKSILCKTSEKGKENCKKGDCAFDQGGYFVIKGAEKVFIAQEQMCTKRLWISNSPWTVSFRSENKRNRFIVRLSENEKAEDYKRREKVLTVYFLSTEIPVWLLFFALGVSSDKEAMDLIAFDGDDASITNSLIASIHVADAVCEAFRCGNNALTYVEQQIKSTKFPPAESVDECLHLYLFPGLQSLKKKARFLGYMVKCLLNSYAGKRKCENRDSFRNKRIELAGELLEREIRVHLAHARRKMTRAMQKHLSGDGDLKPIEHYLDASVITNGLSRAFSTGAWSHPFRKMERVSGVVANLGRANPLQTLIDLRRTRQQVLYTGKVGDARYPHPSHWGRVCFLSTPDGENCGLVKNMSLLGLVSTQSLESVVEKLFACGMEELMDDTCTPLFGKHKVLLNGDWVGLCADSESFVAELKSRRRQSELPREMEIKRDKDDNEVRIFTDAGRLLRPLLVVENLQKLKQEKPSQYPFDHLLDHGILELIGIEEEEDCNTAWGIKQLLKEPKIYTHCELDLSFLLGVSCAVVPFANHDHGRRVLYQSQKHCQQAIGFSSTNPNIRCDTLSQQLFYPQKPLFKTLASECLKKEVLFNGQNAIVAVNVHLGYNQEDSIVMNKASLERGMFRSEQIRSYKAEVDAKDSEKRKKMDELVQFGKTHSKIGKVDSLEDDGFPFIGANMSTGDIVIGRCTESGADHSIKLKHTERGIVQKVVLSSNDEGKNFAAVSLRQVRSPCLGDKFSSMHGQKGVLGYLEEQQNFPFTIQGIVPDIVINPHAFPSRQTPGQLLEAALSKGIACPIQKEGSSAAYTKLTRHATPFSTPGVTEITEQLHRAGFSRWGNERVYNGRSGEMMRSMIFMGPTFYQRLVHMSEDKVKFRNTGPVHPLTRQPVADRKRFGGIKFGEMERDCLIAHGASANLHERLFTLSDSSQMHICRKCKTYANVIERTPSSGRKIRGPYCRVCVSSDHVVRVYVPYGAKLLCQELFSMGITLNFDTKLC

B1: NRP(B/D/E)3 (natural protein, UniProt Q39211 1-319, looked up)
chain: MDGATYQRFPKIKIRELKDDYAKFELRETDVSMANALRRVMISEVPTVAIDLVEIEVNSSVLNDEFIAHRLGLIPLTSERAMSMRFSRDCDACDGDGQCEFCSVEFRLSSKCVTDQTLDVTSRDLYSADPTVTPVDFTIDSSVSDSSEHKGIIIVKLRRGQELKLRAIARKGIGKDHAKWSPAATVTFMYEPDIIINEDMMDTLSDEEKIDLIESSPTKVFGMDPVTRQVVVVDPEAYTYDEEVIKKAEAMGKPGLIEISPKDDSFIFTVESTGAVKASQLVLNAIDLLKQKLDAVRLSDDTVEADDQFGELGAHMRGG
notes: NRP(B/D/E)3, subunit 3 shared by Pol II, IV and V, Arabidopsis thaliana; also called NRPE(B/D/E)3; source: endogenous, A. thaliana T87 cells, co-purified with 3xFLAG-10xHis-NRPE1
B2: KOW domain-containing transcription factor 1 (KTF1), residues 1-712, the conserved N-terminal domain (domain or fragment, Arabidopsis thaliana, UniProt F4JW79 1-712, looked up)
chain: MDRKGKGKQVAGSDSYSGGQKRKNSVEFRDEGLRIKKRKNPEVLQFFEESAEVGYYGGSSDEDDDGLGFLNDMEDEPEVEESSKAGKGEKGKSSFVFPKEEDLNEEEFDRIMEERYKPGSGFLRYADDDIKDAIEMDALAPTSKDPPIWKVKCAIGRERRSVFCLMHKFVELRKIGTKLEIISVFSVDHVKGFIFIEADKEHDVLEACKSLVGIYATRMVLLPKAETPNLLTVQKKTKKVSEGTWARVKNGKYKGDLAQIVAVSDTRNKALIKLIPRIDIQALTQKYGGGVTVQKGQTPAPRLISSSELEEFRPLIQVRRDRDTGITFEHLDSLMLKDGYLYKKVSLDSISSWGVIPTKDELLKFTPVDRKETGDVEWISEIYGEERKKKILPTCREGGKGEGSGGGKGEGSGGGKGEGSRGGKGEGSSDFKSESSYELYNLVCFSRKDFGLIVGVDDKGDGYKVLKEGIDGPVVVTVGKKEMQNGPFDSKFTALDLNKKQISVNDVVKISKGPSEGKQGVVRQVYRGIIFLYDESEEENGGYFCCKSQSCEKVKLFTEESNEKTGGFDGTAFEDFVSSPKSPLSPEKEWQPRERYNSSNQGDIGSTYSIGQKLRIRVGPLKGYLCRVIALRYSDVTVKLDSQHKIFTVKSEHLAEVRDRNTVLSTSGDAGTGSFQPFGMLGTESSTGDWAIGAGTSSEGGNWNIGGPSTDS
notes: KTF1 (SPT5L), Arabidopsis thaliana, At5g04290, residues 1-712 (NGN, KOW1, KOW4, KOW5; without the C-terminal GW/WG repeats); The modified pETDuet1 vector carries a 6xHis-tagged SUMOstar that was cleaved on the column; Added to Pol V as the heterodimer with SPT4; Only the KOW5 domain is seen in the map; also called SPT5L; truncated KTF1 (1-712)
B3: NRP(A/B/C/D/E)12 (natural protein)
chain: not shown
notes: NRP(A/B/C/D/E)12, subunit 12 shared by Pol I-V, Arabidopsis thaliana; source: endogenous, A. thaliana T87 cells, co-purified with 3xFLAG-10xHis-NRPE1

How the values were obtained:
[1] = target: B2; assay: cryo-EM structure; Pol V, nucleic-acid scaffold and KTF1/SPT4 heterodimer mixed 1:1.2:3 in 20 mM HEPES pH 7.5, 100 mM NaCl, 5 mM MgCl2, 1 mM DTT; complex taken from Superose 6 Increase; maps at 3.2 Å and 4.3 Å, local maps at 3.0 Å and 3.7 Å; settings: both partners purified
NRP(D/E)2 = target: T1, NRP(D/E)2; assay: as above; settings: both partners purified

binding result [1] | binding result (NRP(D/E)2) | Binder
binds |  | B1
 | binds | B2
binds |  | B3

Reference: PMC10229537, “A cryo-EM structure of KTF1-bound polymerase V transcription elongation complex” (Nature Communications, 2023)
